Experimental data as given in patent US20160311911A1, “METHODS FOR TREATING ALLERGIC AIRWAY INFLAMMATION” (priority 2015, published 2016).

Assays:
[1] = molecular target: TLR4, CD14 and MD2 on TCM^Hi HEK 293 cells (TLR4^Hi, CD14^Hi, MD2^Hi; InvivoGen) (UniProt O00206); assay: flow cytometry; HEK 293 cells incubated with 100 ug/mL BODIPY-RWPE for 30 minutes on ice, then washed
[2] = molecular target: TLR4 on TLR4^Hi HEK 293 cells (TLR4^Hi, CD14^Null, MD2^Null; InvivoGen) (UniProt O00206); assay: as above
Sequence of TLR4 on TLR4^Hi HEK 293 cells (TLR4^Hi, CD14^Null, MD2^Null; InvivoGen) (O00206 24-839 limits assumed): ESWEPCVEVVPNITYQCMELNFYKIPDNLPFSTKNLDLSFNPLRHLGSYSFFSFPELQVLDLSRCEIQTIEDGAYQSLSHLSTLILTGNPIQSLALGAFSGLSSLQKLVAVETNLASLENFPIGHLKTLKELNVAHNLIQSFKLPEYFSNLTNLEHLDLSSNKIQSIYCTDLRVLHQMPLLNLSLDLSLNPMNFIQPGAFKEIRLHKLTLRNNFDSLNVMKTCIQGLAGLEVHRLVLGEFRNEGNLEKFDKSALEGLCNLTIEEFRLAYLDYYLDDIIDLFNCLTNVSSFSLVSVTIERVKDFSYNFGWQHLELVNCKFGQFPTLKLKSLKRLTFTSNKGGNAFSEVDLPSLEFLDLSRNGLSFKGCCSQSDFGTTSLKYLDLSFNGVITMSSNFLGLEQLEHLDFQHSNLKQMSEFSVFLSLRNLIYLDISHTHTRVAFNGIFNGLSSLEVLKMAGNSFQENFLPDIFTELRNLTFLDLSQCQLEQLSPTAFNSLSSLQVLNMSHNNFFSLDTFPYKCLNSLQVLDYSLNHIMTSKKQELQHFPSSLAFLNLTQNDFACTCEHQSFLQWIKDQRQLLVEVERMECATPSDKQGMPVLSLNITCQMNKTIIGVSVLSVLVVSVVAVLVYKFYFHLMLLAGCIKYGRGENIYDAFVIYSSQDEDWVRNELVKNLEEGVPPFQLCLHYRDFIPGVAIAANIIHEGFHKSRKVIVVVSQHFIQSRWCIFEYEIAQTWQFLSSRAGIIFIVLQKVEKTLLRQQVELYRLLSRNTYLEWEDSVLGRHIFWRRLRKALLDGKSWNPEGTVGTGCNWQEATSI

Sequence of TLR4, CD14 and MD2 on TCM^Hi HEK 293 cells (TLR4^Hi, CD14^Hi, MD2^Hi; InvivoGen) (O00206 24-839 limits assumed, chain 1 of 3): as the sequence (O00206 24-839 limits assumed) above
Sequence of TLR4, CD14 and MD2 on TCM^Hi HEK 293 cells (TLR4^Hi, CD14^Hi, MD2^Hi; InvivoGen) (P08571 20-345 limits assumed, chain 2 of 3, further chain): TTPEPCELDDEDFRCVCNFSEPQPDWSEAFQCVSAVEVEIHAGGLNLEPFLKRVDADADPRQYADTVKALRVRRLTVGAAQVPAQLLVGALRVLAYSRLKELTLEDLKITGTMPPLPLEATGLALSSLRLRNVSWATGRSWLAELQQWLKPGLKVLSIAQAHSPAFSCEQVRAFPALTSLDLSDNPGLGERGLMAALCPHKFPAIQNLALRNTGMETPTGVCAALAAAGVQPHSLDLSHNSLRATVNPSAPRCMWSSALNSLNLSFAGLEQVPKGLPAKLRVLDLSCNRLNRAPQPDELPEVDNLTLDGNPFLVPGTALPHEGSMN
Sequence of TLR4, CD14 and MD2 on TCM^Hi HEK 293 cells (TLR4^Hi, CD14^Hi, MD2^Hi; InvivoGen) (Q9Y6Y9 19-160 limits assumed, chain 3 of 3, further chain): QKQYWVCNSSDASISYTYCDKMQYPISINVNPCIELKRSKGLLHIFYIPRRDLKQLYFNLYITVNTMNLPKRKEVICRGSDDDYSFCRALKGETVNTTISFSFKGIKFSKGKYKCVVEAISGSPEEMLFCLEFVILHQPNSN

“BODIPY-labeled ragweed pollen extract (RWPE)” was tested, and the BODIPY-RWPE staining (% by FACS) [1] was 12.9% and the BODIPY-RWPE staining (% by FACS) [2] was < 3%.
